The source of these data is the nanobody polyreactivity screen of Harvey et al. (2022).

This series in a line: yeast display, Sf9 membrane polyspecificity reagent, FACS + sequencing; frameworks hold sequencing errors. Put shortly:
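A synthetic nanobody library was expressed on Saccharomyces cerevisiae BJ5465 by galactose induction for 36–48 hours. The library was stained for 1 hour at 4 °C with 10% biotinylated, detergent-solubilized Sf9 membrane reagent and enriched with streptavidin microbeads before FACS. Low and high (top ~1%) gates were set on anti-HA fluorescence for expression and streptavidin fluorescence for reagent binding, and each polyreactivity label reflects the gate of origin.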
With “QVQLVESGGGLVQAGGSLRLSCAASGFTLEYYAMGWYRQAPGKERELVASISSGGRTNYADSVKGRFTISRDNAKNTVYLQMNSLKPEDTAVYYCAAEYRSWGRYRYRFNYWGEGTQVTVSS”, the “polyreactivity (PSR sort gate)” value is “high polyreactivity”.

With “QVQLVESGGGLVQAGGSLRLSCAASGFTLFGYAMGWYRPAPGKERELVAAITSGDGRTYYADSVKGRFTISRDNAKNTVYLQMNSLKPEDTAVYYCAATRYSSYYYVRHDHWGQGTQVTVSS”, the “polyreactivity (PSR sort gate)” value is given as “low polyreactivity”.

For “QVQLVESGGGLVQAGGSLRLSCAASGFTLGGNALGWYRQAPGKERELVAAITFSGGSTYYADSVKGRFTISRDNAKNIVYLQMNSLKPVDTAVYYCAKTHGYYYYYTYDYWGQGTQVTVSS”, the “polyreactivity (PSR sort gate)” value is “low polyreactivity”.

Regarding “QVQLVESGGGLVQAGGSLRLSCAASGFTLGRYAMGWYRQAPGKEREFVAAISRGGGSTNYADSVKGRFTISRDNAKNTVYLQMNSLKPEDTAVYYCAADDHTSGYGYWGQGTQVTVSS”, the “polyreactivity (PSR sort gate)” value was “high polyreactivity”.

Take “QVQLVESGGGLVQAGGSLRLSCAASGFTLGSNVMGWYRQAPGKERELVAGISQSGGRTFYADSVKGRFTISRDNSKNTVYLQMNSLKPEDTAVYYCAARRYAVEGSKNYYWGQGTQVTVTS”: the “polyreactivity (PSR sort gate)” value is given as “low polyreactivity”.

As to “QVQLVESGGGLVQAGGSLRLSCAASGFTLGSYAMGWYRQAPGKDRELVARISSDGSTNYADSVKGRFTISRDNAKNTVYLQMNSLKPEDTAVYYCAADFTYYDSPYRDYNYESWGQGAQVTVSS”, the “polyreactivity (PSR sort gate)” value is reported as “low polyreactivity”.

With “QVQLVESGGGLVQAGGSLRLSCAASGFTLGVNAMGWYRQAPGKERELVAAISRGGSTDYADSVKGRFTISRDNAKNTVDLQMYSLKPEDTAVYYCAAETYAWYRGWEGYWGPGTQVTVSS”, the “polyreactivity (PSR sort gate)” value is “high polyreactivity”.

With “QVQLVESGGGLVQAGGSLRLSCAASGFTLGYNAMGWYRQAPGKERELVAGITWSGGSTSYADSVKGRFTISRDNAKNTVYLQMYSLKPADTAVYYCAKLRRYSGWLPWPYAYDYWGQGTQVTVSS”, the “polyreactivity (PSR sort gate)” value is “high polyreactivity”.

As to “QVQLVESGGGLVQAGGSLRLSCAASGFTLHVYAMGWYRQAPGKERELVAAISTGGNTNFADSVKGRFTISRDNAKNTVYLQMNSLKPEDTAVYYCNTLGRYSSYYWGLGTQVTVSS”, the “polyreactivity (PSR sort gate)” value was “high polyreactivity”.

Regarding “QVQLVESGGGLVQAGGSLRLSCAASGFTLIADDMGGYRQAPGKERELVAGISSGDSTDYADSVKGRFTISRDNAKNTVYVQMNSLTPEDTAVYYCAATWYGDYSRYDFYYWGQGTQVTVSS”, the “polyreactivity (PSR sort gate)” value is on record as “low polyreactivity”.

“QVQLVESGGGLVQAGGSLRLSCAASGFTLKSYAMGWYRQAPGKERELVASISRRGGSTYYADSVKGRFTISRDNAKNTVYLQMNSLKPEDTAVYYCAADRSGSSDGVYWGQGTQVTLSS”: the “polyreactivity (PSR sort gate)” value is on record as “high polyreactivity”.

In the case of “QVQLVESGGGLVQAGGSLRLSCAASGFTLKYYAMGWYRQAPGKERELVAAISSGDSTNYADSVKGRFTISRDNAKNTVYLQMNSLKPEDTAVYYCNTRYPSSSYYYWGQGTQVTVSS”, the “polyreactivity (PSR sort gate)” value is on record as “low polyreactivity”.

As for “QVQLVESGGGLVQAGGSLRLSCAASGFTLKYYAMGWYRQAPGKERELVAAITSSGVSTYYADSVKGRFTISRDNAKNTVYLQMNSLKPEDTAVYYCAALYWYSRSSWDYDYWGQGTQVTVSS”, the “polyreactivity (PSR sort gate)” value is reported as “high polyreactivity”.

“QVQLVESGGGLVQAGGSLRLSCAASGFTLLKYDMGWYRQAPGKERELVAAITRRGGRTSYADSVKGRFTISRDNAKNTVYLQMNSLKPEDTAVYYCNADGDTGRFDYWGQGTQVSVSS”: the “polyreactivity (PSR sort gate)” value was “high polyreactivity”.

“QVQLVESGGGLVQAGGSLRLSCAASGFTLLPNAMGWYRQAPGKERELVAAITASGGRTYYADSVKGRFTISRDNAKNTVYLQMNSLKPEDSAVYYCNAGVYYYYHYTRMDYWGQGTQVTVSS”: the “polyreactivity (PSR sort gate)” value is listed as “low polyreactivity”.

Take “QVQLVESGGGLVQAGGSLRLSCAASGFTLNGYAMGWYRQAPGKERELVAAISSSGGRTYYADSVKGRFTISRDNAKNTVYLQMNSLKPEDTAVYYCAAVVYYEDGYWGQGTQVTVSS”: the “polyreactivity (PSR sort gate)” value was “low polyreactivity”.

In the case of “QVQLVESGGGLVQAGGSLRLSCAASGFTLPANGMGWYRQAPGKERELVAAISFIAGSTYYADSVKGRFTISRDNAKNTVYLQMNSLKPEDTAVYYCATQFPPSTIYYYWGQGTQVTVSS”, the “polyreactivity (PSR sort gate)” value was “low polyreactivity”.

As to “QVQLVESGGGLVQAGGSLRLSCAASGFTLQSNAMGWYRQAPGKERELVAAISFRGGSTYYADSVKGRFTISRDNAKNTVYLQMNSLKPEDTAVYYCAAVQVHLREYDYWGQGSQVTVSS”, the “polyreactivity (PSR sort gate)” value is recorded as “low polyreactivity”.

For the sequence “QVQLVESGGGLVQAGGSLRLSCAASGFTLRANAMGWYRQAPGKERELVAAITRTGGRTYYADSVKGRFTISRDNAKNTVYLQMNSLKPEDTAVYYCAADHGPSKWYDYWGQGTEVTVSS”, the “polyreactivity (PSR sort gate)” value is given as “low polyreactivity”.

In the case of “QVQLVESGGGLVQAGGSLRLSCAASGFTLRGNAMGWYRPAPGKERELVAAISTGGSTYYADSVKGRFTISRDNAKNTVYLQMNSLKPEDTAVYYCARRGWFHYRYYYWGQGTQATVSS”, the “polyreactivity (PSR sort gate)” value is “high polyreactivity”.

“QVQLVESGGGLVQAGGSLRLSCAASGFTLRKYAMGWYRQAPGKEREFVATSSSRAASTYYADSVKGRFTISRDNAQNPVYLQMNSLNQEDTAVYYCNKLSPYRGFYWGQGTQVTVSS”: the “polyreactivity (PSR sort gate)” value was “high polyreactivity”.

Take “QVQLVESGGGLVQAGGSLRLSCAASGFTLSAYAMGWYRQAPGKERELVAGISYTGGRTYYADSVKGRFTISRDNAKNTVYLQMNSLKPEDTAVYYCNKAWSGYYKYGYWGQGTQVNVSS”: the “polyreactivity (PSR sort gate)” value is recorded as “low polyreactivity”.

As to “QVQLVESGGGLVQAGGSLRLSCAASGFTLSYYAMGWYRQAPRKERELVASISAIGGITYYADSVKGRFTISRDNAKNTVYLQMNSLKPEDSAVYYCIAGKRFTPYDYWGQGTQVTVSS”, the “polyreactivity (PSR sort gate)” value is listed as “high polyreactivity”.

Regarding “QVQLVESGGGLVQAGGSLRLSCAASGFTLTPYAMGWYRQAPGKERELVAAITYTGGSTYYADSVKGRFTISRDNAKNTVYLQMNSLKPEDTAVYYCAAEFLSVPYDYCYWGQGTQVTVSS”, the “polyreactivity (PSR sort gate)” value is recorded as “high polyreactivity”.

In the case of “QVQLVESGGGLVQAGGSLRLSCAASGFTLVKYVMGWYRQAPGKERELVAAINRSGTSTYYADSVKGRFTISRDNAKYSVYLQMNSLKPEDTAVYYCNADWYRKRNYWGQGTQVTVSS”, the “polyreactivity (PSR sort gate)” value is given as “high polyreactivity”.

Turning to “QVQLVESGGGLVQAGGSLRLSCAASGFTLYAYVMGWYRQAPGKERELVAAISRSGGSTYYADSVKGRFTISRDNAKNTVYLQMNSLKPEDTAVYYCAAQSKYYQYYSWGQGTQVTVSS”, the “polyreactivity (PSR sort gate)” value is given as “high polyreactivity”.

With “QVQLVESGGGLVQAGGSLRLSCAASGFTLYRYAMGWYRQAPGKERELVAAISNSGGSTYYADSVKARFTISRDNAKNTVYLQMNSLKPEDTAVYYCAADPGYNVYGYYYWGQGTQVTVSS”, the “polyreactivity (PSR sort gate)” value is “high polyreactivity”.

In the case of “QVQLVESGGGLVQAGGSLRLSCAASGFTLYWNAMGWYRPAPGTERELVAGITNGGDTYYADSVKGRFTISRDNAKNTVYLQMNSLKPEDTAVYYCNVDPVYYRFHSSLSVIPGYDYWGQGTQVTVSS”, the “polyreactivity (PSR sort gate)” value is “low polyreactivity”.

In the case of “QVQLVESGGGLVQAGGSLRLSCAASGFTLYYYTMGWYRQAPGKERELVASITGGGTTNYADSVKGRFTISRDNAKNTVYLQMNSLKPEDTAVYYCAKGYGASNDPGYVRKRYGYWGQGTQVTVSS”, the “polyreactivity (PSR sort gate)” value is listed as “low polyreactivity”.

“QVQLVESGGGLVQAGGSLRLSCAASGFTNSMGWSTQAHGKERELVAAISYSGDSTNYADSVKGRFTISRDNAKNTVYLQMNSLKPEDTAVYYCNASSPYDYDWGQGTQVTVSS”: the “polyreactivity (PSR sort gate)” value is listed as “low polyreactivity”.
